Test results published in US5523209.
pKd: −log10 of the molar value.

Key:
[1] = biological target: integrin α5 β1 on CHO cells (hamster); test: binding of soluble 125I-Fn to CHO cells
[2] = biological target: integrin α5 β1 on CHO cells (hamster); test: 125I-Fn binding to CHO cells washed free of NaN3 and 2-deoxyglucose

pKd [1]: 7.00 | percent of the high affinity binding restored after washout of the metabolic inhibitors [2]: 75%
Substance: fibronectin (from UniProt P02751) (ligand)
